Measured values as given in patent US20220356229A1.
Numbering of substitutions follows the chain as printed. Several values for one entry are separate records, joined by “and”; a condition that tells them apart may be missing. Identical values can stand only once.

B1: antibody 464 (antibody, V domains shown)
VH: QVQLVQSGAEVKKPGASVKVSCKVSGYTLTELSMHWVRQAPGKGLEWMGGFDPEDGETIYAQKFQGRVTMTEDTSTDTAYMELSSLRSEDTAVYYCATARAFGVANWFDPWGQGTLVTVSS
VL: QSVLTQPPSASGTPGQRVTISCSGSSSNIGSNYVYWYQQLPGTAPKLLIYRNNQRPSGVPDRFSGSKSGTSASLAISGLRSEDEADYYCAAWDDSLSGLYVFGTGTKVTVL
B2: antibody 495 (antibody, V domains shown)
VH: QITLKESGPTLVKPTQTLTLTCTFSGFSLSTSGVGVGWIRQPPGKALEWLALIYWDDDKRYSPSLKSRLTITKDTSKNQVVLIMTNMDPVDTATYYCAHRDSSSWFDLDAFDIWGQGTMVIVSS
VL: QSVLTQPPSVSEAPRQRVTISCSGSSSNIGNNAVNWYQQLPGKAPKLLIYYDDLLPSGVSDRFSGSKSGTSASLAISGLQSEDEADYYCAAWDDRLNGPVFGGGTKLTVL
B3: Antibody 390 (antibody, V domains shown)
VH: EVQLVESGGGLIQPGGSLRLSCAASGFTVSSNYMSWVRQAPGKGLEWVSIIYSGGSTYYADSVKGRFTISRDNSKNTLYLQMNSLRAEDSAVYSCATTMVRGLIISYYYGMDVWGQGTTVTVSS
VL: QSALTQPASVSGSPGQSITISCTGTSSDVGGYNYVSWYQQHPGKAPKLMIYEVSNRPSGVSNRFSGSKSGNTASLTISGLQAEDEADYYCSSYTSSSTLVFGGGTKLTVL
B4: Antibody 413 (antibody, V domains shown)
VH: EVQLVESGGGLIQPGGSLRLSCAASGFTVSGNYMNWVRQAPGKGLEWVSVIYSGGSTYYADSVKGRFTISRANSKNTLYLQMNSLRAEDTAVYYCASTSLVRGLIILYYYGMDVWGQGTTVTVSS
VL: B3 VL
B5: antibody 269 (antibody, V domains shown)
VH: QLQLQESGPGLVKPSETLSLTCTVSGGSISSSSYYWGWIRQPPGKGLEWIGNIYYSGSTYYNPSLKSRVTISVDTSKNQFSLKLSSVTAADTAVYYCAGEELDIVATIYSSRYYYYGMDVWGQGTTVTVSS
VL: B3 VL with S96T
B6: anti-SARS-CoV-2 antibody 493 (antibody, V domains shown)
VH: B3 VH with G16R, S31I, N32T, I50L, T57S, S90T, S94Y, L103V
VL: B3 VL
B7: antibody 499 (antibody, V domains shown)
VH: EVQLVESGGGLVKPGGSLRLSCAASGFTFSSYSMNWVRQAPGKGLEWVSSISSSSSYIYYADSVKGRFTISRDNAKNSLYLQMNSLRAEDTAVYYCARAPAGIVVGPDYWGQGTLVTVSS
VL: NFMLTQPHSVSESPGKTVTISCTGSSGSIASNYVQWYQQRPGSAPTTVIFEDNQRPSGVPDRFSGSIDSSSNSASLTISGLKTEDEADYYCQSYHSSNPHVVFGGGTKLTVL
B8: antibody 270 (antibody, V domains shown)
VH: QVQLVQSGAEVKRPGTSVKVSCKTSGYTFTDHFIHWVRQAPGRRLEWMGWINPNSGGTNYAQNFQGRVTMTRDTSITTAYMDLTRLTSDDTAIYYCAREAAYGSGNLNWFDPWGQGTRVTVSS
VL: NFMLTQPHSVSESPGKTVTISCTGSSGSIAANYVHWYQQRPGSAPRTVIYEDNQRPSGVPDRFSGSIDSSSNSASLTISGLKTEDEADYYCQSYDGDSWVFGGGTKLTVL
B9: antibody 485 (antibody, V domains shown)
VH: QVQLQESGPGLVKPSGTLSLTCAVSGASISSSNWWSWVRQPPGKGLEWIGEIYHSGSTNYNPSLKSRVTISVDKSKNQFSLKLSSVTAADTAVYYCARRSYYGSGSYYPFDYWGQGTLVTVSS
VL: QSALTQPASVSGSPGQSITISCTGTSSDVGSYNLVSWYQQHPGKAPKLMIYEGRKRPSGVSNRFSGSKSGNTASLTISGLQAEDEADYYCCSYAGSSTYVFGTGTKVTVL
B10: Antibody 389 (antibody, V domains shown)
VH: QVQLVESGGGVVQPGRSLRLSCAASGFTFSSYAMHWVRQAPGKGLEWVAVISYDGSNKYYADSVKGRFTISRDNSKNTLYLQMNSLRAEDTAVYYCASQGRMYVRGVDYGVYWGQGTLVTVSS
VL: NFMLTQPHSVSESPGKTVTISCTGSSGSIASNYVQWYQQRPGSAPTTVIYEDNQRPSGVPDRFSGSIDSSSNSASLTISGLKTEDEADYYCQSYDSSKISHAVFGGGTQLTVL

Experiments:
Conditions in all cases: remark: other sources report otherwise
[1] = biological target: SARS-CoV-2 Spike protein, wild type, full length (SARS-CoV-2), P0DTC2
[2] = biological target: T1, SARS-CoV-2 Spike (S) protein, wild type, full length (SARS-CoV-2), P0DTC2
[3] = biological target: SARS-CoV-2 Spike (S) protein, wild type, full length, expressed on the surface of transiently transfected CHO cells (SARS-CoV-2), P0DTC2
[4] = biological target: T1, SARS-CoV-2 Spike (S) protein, wild …; remark: listed apart in the source
[5] = biological target: SARS-CoV-2 Spike (S) protein, wild type (SARS-CoV-2), P0DTC2; test: HT-SPR Carterra LSA; mAb coupled to chip, Spike in solution; 1:1 Langmuir fit

Binder | binding signal, fold over isotype control (fold over isotype) [1] | MFI fold over isotype control (fold over isotype) [3] | also measured
B1 | 1.27 and 0.99 and 1.04 |  | 
B2 | 1090 and 384 and 530 |  | median fluorescence, fold over isotype control (fold over isotype) [2]: 0.83
B3 |  | 0.73 | 
B4 |  | 1.11 | 
B5 |  |  | bead binding signal (fold over isotype) (fold over isotype) [4]: 480 and 191 and 188
B6 |  |  | kon [5]: 75000 M⁻¹ s⁻¹
B7 | 1120 and 386 and 432 |  | median fluorescence, fold over isotype control (fold over isotype) [2]: 0.9
B8 |  |  | bead binding signal (fold over isotype) (fold over isotype) [4]: 305
B9 | 510 |  | 
B10 |  | 0.72 | 
